Data taken from publication PMC4982076, “lin28 proteins promote expression of 17∼92 family miRNAs during amphibian development”.

T1: Xrt-lin28a (Xenopus tropicalis, UniProt Q5EB47 34-177)
T1 sequence: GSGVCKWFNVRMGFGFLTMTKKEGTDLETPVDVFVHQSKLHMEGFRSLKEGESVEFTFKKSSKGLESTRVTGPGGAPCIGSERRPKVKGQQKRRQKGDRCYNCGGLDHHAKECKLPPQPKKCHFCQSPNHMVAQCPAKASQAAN


Experiments:
[1] = target: T1, Xrt-lin28a; test: EMSA; conditions: Bmax 1.017; n=3; 60 mM KCl, 10 mM HEPES pH 7.6, 3 mM MgCl2, 5% glycerol, 1 mM DTT, 5 ug/ul heparin, 150 ng yeast total RNA; 30 min room temperature; 10% native PAGE
[2] = target: T1, Xrt-lin28a; test: EMSA; Bmax 0.962; n=3; 60 mM KCl, 10 mM HEPES pH 7.6, 3 mM MgCl2, 5% glycerol, 1 mM DTT, 5 ug/ul heparin, 150 ng yeast total RNA; 30 min room temperature; 10% native PAGE; conditions: protein: recombinant

Molecule | Kd [1] [nM] | Kd [2] [nM]
L-let-7g | 314 | –
UGCAAUUUUAUUUAGUUUGGUAGGAGAAAAAUUGC (structured_RNA) [L-mir-363] | – | 448
